# Measurements reported in US9404098, “Method for cleaving a target RNA using a Cas6 polypeptide” (University of Georgia Research Foundation, Inc.).
# T1: PfCas6 (PF1131) (Pyrococcus furiosus, UniProt Q8U1S4 SEQ:1-264)
# T1 sequence: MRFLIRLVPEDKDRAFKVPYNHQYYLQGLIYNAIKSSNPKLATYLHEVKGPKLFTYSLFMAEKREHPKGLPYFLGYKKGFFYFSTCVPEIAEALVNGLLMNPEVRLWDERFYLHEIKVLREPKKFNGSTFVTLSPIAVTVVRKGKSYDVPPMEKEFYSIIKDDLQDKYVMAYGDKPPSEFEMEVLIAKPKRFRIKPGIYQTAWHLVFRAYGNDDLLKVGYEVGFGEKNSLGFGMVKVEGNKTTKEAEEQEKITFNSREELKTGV
# T2: PfCas6 K52A (Pyrococcus furiosus, UniProt Q8U1S4 SEQ:1-264, K52A)
# T2 sequence: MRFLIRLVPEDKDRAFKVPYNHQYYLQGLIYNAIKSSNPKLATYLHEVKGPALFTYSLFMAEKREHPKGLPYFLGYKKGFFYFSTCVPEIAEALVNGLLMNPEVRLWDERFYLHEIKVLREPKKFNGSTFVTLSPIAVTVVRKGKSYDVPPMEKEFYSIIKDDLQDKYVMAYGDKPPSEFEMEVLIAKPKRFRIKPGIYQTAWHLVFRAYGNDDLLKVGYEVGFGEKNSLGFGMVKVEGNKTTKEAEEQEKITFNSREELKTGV
# T3: PfCas6 K52E (Pyrococcus furiosus, UniProt Q8U1S4 SEQ:1-264, K52E)
# T3 sequence: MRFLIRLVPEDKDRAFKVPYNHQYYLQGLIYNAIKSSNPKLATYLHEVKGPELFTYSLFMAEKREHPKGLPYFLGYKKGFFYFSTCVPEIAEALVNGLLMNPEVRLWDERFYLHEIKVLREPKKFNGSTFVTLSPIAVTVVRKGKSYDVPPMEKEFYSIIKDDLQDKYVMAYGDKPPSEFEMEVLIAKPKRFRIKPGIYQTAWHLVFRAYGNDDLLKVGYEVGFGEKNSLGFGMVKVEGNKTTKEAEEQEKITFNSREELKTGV
# T4: PfCas6 Y31F (Pyrococcus furiosus, UniProt Q8U1S4 SEQ:1-264, Y31F)
# T4 sequence: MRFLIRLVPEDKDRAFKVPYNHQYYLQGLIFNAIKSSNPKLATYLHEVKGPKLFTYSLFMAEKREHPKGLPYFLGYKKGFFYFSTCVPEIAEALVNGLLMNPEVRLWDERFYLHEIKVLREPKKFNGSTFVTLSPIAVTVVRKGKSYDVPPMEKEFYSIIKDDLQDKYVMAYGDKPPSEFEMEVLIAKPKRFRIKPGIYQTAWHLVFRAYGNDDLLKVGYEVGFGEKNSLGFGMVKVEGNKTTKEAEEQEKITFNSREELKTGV
# Tests used:
# PfCas6 (PF1131) [1] = molecular target: T1, PfCas6 (PF1131); assay: EMSA; 0-500 nM Cas6, 70 C, 250 mM KCl, 1.5 mM MgCl2; settings: tags: N-terminal 6xHis; label: 32P uniform
# Description: Figure 3: FIG. 3. Identification of the site of PfCas6 cleavage within the CRISPR repeat RNA. (A) The site of PfCas6 cleavage within the CRISPR repeat RNA was mapped by incubating 5' end labeled repeat RNA with PfCas6 nuclease and comparing the size of the 5' RNA cleavage product (arrow) with RNAse T1 (T1) and alkaline hydrolysis (OH) sequence ladders. (B) Potential secondary structure of P. furiosus repeat RNA (SEQ ID No: 238) with cleavage site indicated. (C) Analysis of cleavage of wild-type and cleavage site mutant (AA to GG) repeat RNAs with increasing concentrations (0, 1, 50, 200, and 500 nM) of PfCas6. (D) Native gel mobility shift analysis of wild-type and mutant repeat RNAs with increasing concentrations of PfCas6. The positions of the free (RNA) and protein-bound (RNP) RNAs are indicated. 5' and 3' cleavage products are indicated in both C and D. The sizes of RNA markers (M) are indicated in A and C.
# Typically, identical reaction conditions were used to assay the ability of PfCas6 protein to bind to and to cleave substrate RNAs. These reactions were initiated by incubating 0.05 μmol of ^32P-radiolabeled RNAs (either uniformly or 5'-end-labeled) with up to 1 (as indicated in the figure legends) of PfCas6 protein in 20 mM HEPES-KOH (pH 7.0), 250 mM KCl, 0.75 mM DTT, 1.5 mM MgCl_2, 5 μg of E. coli tRNA, and 10% glycerol in a 20-μL reaction volume for 30 minutes at 70° C. […]
# PfCas6 (PF1131) [2] = molecular target: T1, PfCas6 (PF1131); assay: EMSA; gel-purified; up to 500 nM; settings: tags: N-terminal 6xHis; label: 32P uniform
# Description: (§1) Typically, identical reaction conditions were used to assay the ability of PfCas6 protein to bind to and to cleave substrate RNAs. These reactions were initiated by incubating 0.05 μmol of ^32P-radiolabeled RNAs (either uniformly or 5'-end-labeled) with up to 1 (as indicated in the figure legends) of PfCas6 protein in 20 mM HEPES-KOH (pH 7.0), 250 mM KCl, 0.75 mM DTT, 1.5 mM MgCl_2, 5 μg of E. coli tRNA, and 10% glycerol in a 20-μL reaction volume for 30 minutes at 70° C. Half of the reactions were directly run on native 8% polyacrylamide gels to assay RNA binding by gel mobility shift essentially as described (Baker et al., 2005. Genes & Dev. 19: 1238-1248). […] Gels were dried and the radiolabeled RNAs visualized by phosphorimaging.
# (§2) Figure 4: FIG. 4. CRISPR repeat sequence requirements for PfCas6 binding. (A) Detailed analysis of binding with a series of CRISPR-derived RNAs and mutants. The left panel illustrates the RNAs tested, with repeat (R) and invader targeting (ψ) sequences, and PfCas6 cleavage site (dashed lines) indicated. The shaded portion of j denotes an insertion, dashed block denotes an internal deletion, and The shaded portions of **, e, f, and k denote substitutions (with complementary sequence). DNA indicates a DNA repeat sequence substrate. PfCas6 binding is summarized relative to binding to the 5' cleavage product (++++). […]
# PfCas6 (PF1131) [3] = molecular target: T1, PfCas6 (PF1131); assay: footprint; nt 2-8 protected from Pb(II); nt 3, 5 and 8 from RNase A; no 3' region protection; 500 mM KCl; settings: tags: N-terminal 6xHis; label: 32P (5', 3' or uniform); potential weak hairpin, mostly unstructured in solution
# From the text: Size markers include 5' end-labeled RNA markers (M) and alkaline hydrolysis ladders (OH). Bars along right side of each gel indicate strong protections. (B) 5' end-labeled CRISPR repeat RNA was used for lead-induced and RNase A cleavage as was done in (A). […] (C) A summary of cleavage protection is shown. The Cas6 cleavage site is indicated by an asterisk (*), and the nucleotides protected from cleavage are shown by the bars above and below the sequence FIG. 10. Lead-induced and RNase A cleavage footprinting with CRISPR repeat RNA and PfCas6. (A) 3' end labeled CRISPR repeat RNA was incubated in the absence (RNA) or presence of increasing concentrations of PfCas6 (indicated in μM) and then subjected to RNase A cleavage (left panel) or lead-induced cleavage (right panel). […] Size markers include 5' end-labeled RNA markers (M) and alkaline hydrolysis ladders (OH). Bars along right side of each gel indicate strong protections. (B) 5' end-labeled CRISPR repeat RNA was used for lead-induced and RNase A cleavage as was done in (A). […] (C) A summary of cleavage protection is shown. The Cas6 cleavage site is indicated by an asterisk (*), and the nucleotides protected from cleavage are shown by the bars above and below the sequence (SEQ ID NO: 238). Figure 10:
# Specifically, nucleotides 2-8 were protected from lead induced cleavage in a Cas6 concentration dependent manner. […]
# PfCas6 K52A = molecular target: T2, PfCas6 K52A; assay: cleavage_in_vitro; 500 nM; settings: tags: N-terminal 6xHis; label: 32P (5', 3' or uniform); potential weak hairpin, mostly unstructured in solution
# Description: (§3) RNA-binding and cleavage reactions. RNA binding and cleavage reactions were carried out as described in example 1. Briefly, 0.05 μmol of uniformly ^32P-labeled RNA was incubated in the absence (free RNA) or presence of increasing concentrations of Cas6 (as indicated in figure legends) in buffer A for 30 minutes at 65-70° C. Half of each reaction was run on 8% native polyacrylamide gels to assess RNA binding by gel mobility shift analysis. RNA cleavage was assessed by separation of the RNAs on denaturing, 7 M urea containing, 15% polyacrylamide gels following PCI extraction and ethanol precipitation. For analysis of native Cas6 cleavage activity, either ~40 μg of whole cell extract (WCE) or supernatant from an immunoprecipitation reaction (see below) was incubated with 0.05 μmol of uniformly ^32P labeled RNA for 30 minutes at 70° C. Alternatively, 10 μL of resin from an immunoprecipitation reaction (see below) was added. In this case, samples were mixed every five minutes by pipetting up and down during the 30 minute incubation at 70° C. The gels were dried and RNAs visualized by phosphor imaging. Quantitation of cleavage was performed using ImageQuant™ TL software (GE Life Sciences).
# (§4) Figure 11: FIG. 11. Cleavage activity of Cas6 mutants. […] The 5' and 3' cleavage products are indicated. (B) Purified wild type (wt) and mutant Cas6 proteins (as indicated above) were separated by SDS-PAGE. Molecular weight markers are indicated in kDa.
# (§5) Mutation of any of the three triad amino acids led to a significant decrease or complete loss of cleavage activity relative to wild type Cas6 (FIG. 11A).
# PfCas6 K52E = molecular target: T3, PfCas6 K52E; assay: cleavage_in_vitro; 500 nM; settings: tags: N-terminal 6xHis; label: 32P (5', 3' or uniform); potential weak hairpin, mostly unstructured in solution
# Description: as §3, §4, §5
# PfCas6 Y31F = molecular target: T4, PfCas6 Y31F; assay: cleavage_in_vitro; 500 nM; settings: tags: N-terminal 6xHis; label: 32P (5', 3' or uniform); potential weak hairpin, mostly unstructured in solution
# Description: as §3, §4, §5
# PfCas6 (PF1131) [4] = molecular target: T1, PfCas6 (PF1131); assay: EMSA; up to 500 nM; settings: tags: N-terminal 6xHis; label: 5' 32P
# Description: as §1, §2
# PfCas6 (PF1131) [5] = molecular target: T1, PfCas6 (PF1131); assay: EMSA; binding abolished; up to 500 nM; settings: tags: N-terminal 6xHis; label: 32P uniform
# Description: as §1, §2
# PfCas6 (PF1131) [6] = molecular target: T1, PfCas6 (PF1131); assay: EMSA; 70 C; settings: tags: N-terminal 6xHis
# Description: as §1
# Figure 4: FIG. 4. CRISPR repeat sequence requirements for PfCas6 binding. (A) Detailed analysis of binding with a series of CRISPR-derived RNAs and mutants. The left panel illustrates the RNAs tested, with repeat (R) and invader targeting (ψ) sequences, and PfCas6 cleavage site (dashed lines) indicated. The shaded portion of j denotes an insertion, dashed block denotes an internal deletion, and The shaded portions of **, e, f, and k denote substitutions (with complementary sequence). DNA indicates a DNA repeat sequence substrate. PfCas6 binding is summarized relative to binding to the 5' cleavage product (++++). Corresponding RNA diagrams and data panels are designated with lowercase letters. The right panels show gel mobility shift analysis of the indicated RNAs with increasing concentrations (0, 1, 50, 200, and 500 nM) of PfCas6. Substrates are uniformly radiolabeled except for those shown in panels a, b, c, and 1, which are 5'-end-labeled. (B) PfCas6 interacts with the gel-purified 5' cleavage product.
# PfCas6 (PF1131) [7] = molecular target: T1, PfCas6 (PF1131); assay: EMSA; binding to the 5' cleavage product formed during incubation; settings: tags: N-terminal 6xHis; label: 32P 5' or uniform
# Description: as §1, §2
# PfCas6 (PF1131) [8] = molecular target: T1, PfCas6 (PF1131); assay: EMSA; affinity similar to 5' cleavage product; settings: tags: N-terminal 6xHis; label: 32P
# Description: as §1, §2
binder,measurement,setting,value
GGGUUACAAUAAGACCAAAAUAGGGUUGAAAG (ssRNA) [AA to GG cleavage site mutant repeat],binding result,PfCas6 (PF1131) [1],binds
AUUGAAAG (ssRNA) [3' cleavage product (repeat nt 23-30)],binding result,PfCas6 (PF1131) [2],no binding
GUUACAAUAAGACCAAAAUAGAAUUGAAAG (ssRNA) [CRISPR repeat RNA],binding result,PfCas6 (PF1131) [3],binds
same,activity,PfCas6 K52A,> 40 fold reduction vs wild type
same,activity,PfCas6 K52E,> 150 fold reduction vs wild type
same,activity,PfCas6 Y31F,~2 fold reduction vs wild type
"GTTACAATAAGACCAAAATAGAATTGAAAG (ssDNA, [none]) [DNA repeat]",binding result,PfCas6 (PF1131) [4],no binding
GGGCAAUGUUAAAGACCAAAAUAGAAUUGAAAG (ssRNA) [sub. 1-8],binding result,PfCas6 (PF1131) [5],no binding
GGGAAGACCAAAAUAGAAUUGAAAG (ssRNA) [del. 1-8],binding result,PfCas6 (PF1131) [5],no binding
AUUGAAAGUUGUAGUAUGCGGUCCUUGCGGCUGAGAGCACUUCAG (ssRNA) [last 8 nt of repeat + guide],binding result,PfCas6 (PF1131) [4],no binding
guide + first part of repeat (panel c) (ssRNA) RNA: GGGAUUGAAAGUUGUAGUAUGCGGUCCUUGCGGCUGAGAGCACUUCAGGUUACAAUAAGACCAAAAUAGA,binding result,PfCas6 (PF1131) [6]; label: 5' 32P,binds
GGGUUACAAUAAGACCAAAAUAG (ssRNA) [del. 23-30],binding result,PfCas6 (PF1131) [6]; label: 32P uniform,binds
repeat-guide-repeat (R-g-R) (ssRNA) RNA: GGGUUCCAAUAAGACUACAAAAGAAUUGAAAGUUGUAGUAUGCGGUCCUUGCGGCUGAGAGCACUUCAGGUUCCAAUAAGACUACCAAAAGAAUUGAAAG,binding result,PfCas6 (PF1131) [7],binds
GUUACAAUAAGA (ssRNA) [repeat nt 1-12],binding result,PfCas6 (PF1131) [8],binds
GGGUUACAAUAAGACCAAAAUAGAAAACUUUC (ssRNA) [sub. 23-30],binding result,PfCas6 (PF1131) [6]; label: 32P uniform,binds
